Assay results: PMC12667839

Target: T1, GST-FOXL2-FHD (UniProt O88470 48-144)
T1 sequence: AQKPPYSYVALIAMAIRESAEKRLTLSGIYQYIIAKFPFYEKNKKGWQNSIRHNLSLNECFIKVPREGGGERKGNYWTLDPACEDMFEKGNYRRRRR
Assay: EMSA

B1: Enh 3 wt (SBE/FBE1&2) (dsDNA)
DNA 1: GCCTTGATGTGTCTGGCTCAGAGCTGGCTAGAAGGCCAAGGCTATATGC
DNA 2: GCATATAGCCTTGGCCTTCTAGCCAGCTCTGAGCCAGACACATCAAGGC
binding result: no binding
